Assay results from US20020064828A1 (UNIVERSITY OF BALTIMORE BIOTECHNOLOGY INSTITUTE, published 2002).
Where no end group is shown, it is not given here.

T1: PS2-loop D bait (LexA fusion, divergent region of the PS2 loop) (human, also: N-terminal LexA (pEG202) fusion, limits and linker not given here)
T1 construct: Range 301-319 is inferred from loop B being divided into loop C (31 aa) and loop D; not shown: LexA moiety of pEG202, NH2-terminal of the bait
T1 chain: TVGMAKLDPSSQGALQLPY


Tests used:
[1] = target: T2, PS2-C term bait (LexA fusion, COOH-terminal sequence of PS2 downstream of the eighth TMD) (human); assay: yeast two-hybrid liquid beta-galactosidase assay
T2 construct: also called PS2-COOH-terminal construct; PS2-COOH-terminal domain; not shown: LexA moiety of pEG202, NH2-terminal of the bait
T2 sequence (chain, as listed by the source limits assumed): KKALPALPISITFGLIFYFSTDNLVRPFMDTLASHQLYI
Experimental: (§1) All PCR-amplified regions were digested with EcoRI and XhoI, cloned into pEG202, and confirmed by DNA sequencing. These various baits were transformed into EGY48 and found by immunoblotting of yeast extracts to express appropriately sized lexA-PS fusion polypeptides. Three isolates from yeast transformed with the calmyrin in pJG4-5 (clone 7) plus each PS bait or the control lamin bait were assayed for β-galactosidase enzyme activity in liquid cultures using ONPG (O-nitrophenyl β-D-galactopyranoside) as a substrate (Reynolds and Lundblad, 1989).
To quantify the binding specificity of calmyrin to the PS2-loop and to determine if this protein also interacts with the PS1 loop which is 45% identical in amino acid sequence, the galactosidase activity was measured in yeast liquid assays.

[2] = target: T3, PS1-loop C bait with T281P, L282I (human); assay: yeast two-hybrid liquid assay, mutated PS1-loop C bait against the T281P bait
T3 construct: Range inferred as for PS1-loop C; not shown: LexA moiety of pEG202 (N-terminal fusion partner) and the vector-encoded junction residues
Experimental: (§2) Three isolates from yeast transformed with the calmyrin in pJG4-5 (clone 7) plus each PS bait or the control lamin bait were assayed for β-galactosidase enzyme activity in liquid cultures using ONPG (O-nitrophenyl β-D-galactopyranoside) as a substrate (Reynolds and Lundblad, 1989).
(§3) Further investigation was performed to determine how these three divergent residues influenced calmyrin interaction with the PS-loop C region in yeast two-hybrid assays. […] When both proline and alanine were present together (T281P, T291A) they increased binding substantially, producing an approximately twofold higher level of binding compared with the wild-type PS2-loop bait.

[3] = target: T4, PS1-loop C bait (LexA fusion, region of PS1 corresponding to PS2-loop C) (human); assay: yeast two-hybrid liquid beta-galactosidase assay (ONPG), LexA bait and calmyrin prey
T4 construct: not shown: LexA moiety of pEG202, NH2-terminal of the bait
Experimental: as §1
(§4) To further map the binding site of calmyrin within the PS2-loop, two new baits were constructed which divided the loop into a conserved portion, loop C (28 out of the 31 amino acids are identical to PS1 ), and a divergent region, loop D (only 33% identity to PS1; FIG. 1).

[4] = target: T5, PS2-loop B bait (LexA fusion, first 50 amino acids of the PS2 loop) (human, UniProt O88777 270-319 (rat entry)); assay: as above
T5 construct: Range 270-319 follows from 'residues 270-361' and 'the first 50 amino acids of the PS2 loop'; also called PS2-loop bait; loop bait; not shown: LexA moiety of the pEG202 LexA fusion plasmid, NH2-terminal of the bait
T5 sequence (O88777 270-319 limits assumed): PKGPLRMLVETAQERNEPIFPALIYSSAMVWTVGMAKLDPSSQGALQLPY
Experimental: as §1, §4

[5] = target: T6, PS2-loop C bait (LexA fusion, conserved 31-amino acid loop region of PS2) (human); assay: as above
T6 construct: Range 270-300 follows from loop start 270 and '31 amino acids'; also called wild-type PS2-loop bait; not shown: LexA moiety of pEG202, NH2-terminal of the bait
Experimental: as §1, §4

[6] = target: T7, PS1-loop B bait (LexA fusion, region of PS1 corresponding to PS2-loop B) (human, UniProt P49768 264-315); assay: as above
T7 construct: not shown: LexA moiety of pEG202, NH2-terminal of the bait
Experimental: as §1, §4

[7] = target: T1, PS2-loop D bait (LexA fusion, divergent …); assay: as above
Experimental: as §1, §4

[8] = target: T8, PS1-loop C bait with T281P, T291A (human); assay: yeast two-hybrid liquid assay, mutated PS1-loop C bait against PS2-loop C bait
T8 construct: Range inferred as for PS1-loop C; also called (T281P, T291A) double mutant; not shown: LexA moiety of pEG202 (N-terminal fusion partner) and the vector-encoded junction residues
Experimental: as §2, §3

[9] = target: T9, PS1-loop C bait with T281P (human); assay: as above
T9 construct: Range inferred as for PS1-loop C; not shown: LexA moiety of pEG202 (N-terminal fusion partner) and the vector-encoded junction residues
Experimental: as §2, §3

[10] = target: T10, PS1-loop C bait with T291A (human); assay: as above
T10 construct: Range inferred as for PS1-loop C; not shown: LexA moiety of pEG202 (N-terminal fusion partner) and the vector-encoded junction residues
Experimental: as §2, §3

[11] = target: T11, PS1-loop C bait with L282I, T291A (human); assay: yeast two-hybrid liquid assay, mutated PS1-loop C bait against the T291A bait
T11 construct: Range inferred as for PS1-loop C; not shown: LexA moiety of pEG202 (N-terminal fusion partner) and the vector-encoded junction residues
Experimental: as §2, §3

[12] = target: T4, PS1-loop C bait (LexA fusion, region of …); assay: yeast two-hybrid liquid assay, PS1-loop C against PS2-loop C
[13] = target: full-length human presenilin 2 (PS2) expressed in HeLa cells (human, UniProt P49810 1-448); assay: cell-based or functional assay

Row | Binder | binding result [1] | fold binding compared with the T281P bait [2] [fold] | fold increase in beta-galactosidase activity over control [3] [fold] | fold increase in beta-galactosidase activity over lamin B control [4] [fold] | fold increase in beta-galactosidase activity over control [5] [fold] | fold increase in beta-galactosidase activity over lamin B control [6] [fold] | fold increase in beta-galactosidase activity over control [7] [fold] | fold level of binding compared with the wild-type PS2-loop bait [8] [fold] | interaction relative to the PS2 level [9] | binding relative to the PS2 level [10] | binding result [11] | interaction strength relative to the PS2-loop region [12] | cell death (floating HeLa cells), fold over control, on coexpression [13] [fold]
1 | calmyrin (calcium-binding myristoylated protein with homology to calcineurin), yeast two-hybrid prey in pJG4-5 (clone 7) (other, not shown: large carriers, Prey fusion in yeast; also called CIB; KIP) MGGSGSRLSKELLAEYQDLTFLTKQEILLAHRRFCELLPQEQRTVESSLRAQVPFEQILSLPELKANPFKERICRVFSTSPAKDSLSFEDFLDLLSVFSDTATPDIKSHYAFRIFDFDDDGTLNREDLSRLVNCLTGEGEDTRLSASEMKQLIDNILEESDIDRDGTINLSEFQHVISRSPDFASSFKIVL | no binding | 1.7 | 5.8 | 8.5 | 74 | 1.9 | 2.2 | ~2 | ~0.5 fraction of the PS2 level | 0.33 fraction of the PS2 level | binds | < 0.1 fraction of the PS2-loop strength | 
2 | untagged full-length wild type calmyrin expressed in HeLa cells (other, myristoylated (NH2 consensus myristoylation site; 3H-myristic acid incorporated)) GGSGSRLSKELLAEYQDLTFLTKQEILLAHRRFCELLPQEQRTVESSLRAQVPFEQILSLPELKANPFKERICRVFSTSPAKDSLSFEDFLDLLSVFSDTATPDIKSHYAFRIFDFDDDGTLNREDLSRLVNCLTGEGEDTRLSASEMKQLIDNILEESDIDRDGTINLSEFQHVISRSPDFASSFKIVL |  |  |  |  |  |  |  |  |  |  |  |  | 5.9
